The text below walks through data of patent US20040267001A1, “Genes encoding baeyer-villiger monooxygenases” (priority 2001, published 2004).

This experiment can be described thus: Conversion of cyclohexanone to caprolactone by E. coli clones expressing Rhodococcus erythropolis AN12 monooxygenases, GC-MS detection. To be noted: 500 mg/L cyclohexanone, 0.1 mM IPTG, overnight at 24° C., GC-MS of ethylacetate extract. It counts as cell-based, Escherichia coli. How it is done: Following amplification, the gene fragments were cloned into pTrcHis-TOPO TA vectors with either an N-terminal tail or C-terminal tail, as provided by the vector sequence. These vectors were transformed into E. coli, with transformants grown in Luria-Bertani broth supplemented with ampicillin (100 ug/ml).
The chnB monooxygenase activity of each expressed enzyme from Example 9 was tested for activity according to its ability to convert cyclohexanone to caprolactone.
Clones containing the full length monooxygenase genes were transferred from LB agar plate to 5 mL of M63 minimal media (GIBCO) containing 10 mM glycerol, 50 ug/mL ampicillin, 0.1 mM IPTG, and 500 mg/L cyclohexanone. In addition to the clones containing full length monooxygenases, a plasmid without an insert and a “no cell” control were also assayed. The encoded monooxygenase sequences were expressed upon addition of IPTG to the culture media. The cultures were incubated overnight at room temperature (24° C.). Samples (1.25 mL) for analysis were taken immediately after inoculation and after overnight incubation; cells were removed by centrifugation (4° C., 13,000 rpm).
Caprolactone formed by the action of the cloned monooxygenase was extracted from the aqueous phase with ethylacetate (1.0 ml aqueous/0.5 mL ethylacetate). Caprolactone was detected by gas chromotagraphy mass spectrometry (GC-MS) analysis, using an Agilent 6890 Gas chromatograph system.
The analysis of the ethylacetate phase was performed by injecting 1 uL of the ethyl acetate phase into the GC. The inlet temperature was 115° C. and the column temperature profile was 50° C. for 4 min and ramped to 250° C. at 20° C./min, for a total run time of 14 min. The compounds were separated with an Hewlet Packard HP-5MS (5% phenyl Methyl Siloxane) column (30 m length, 250 um diameter, and 0.25 um film thickness). The mass spectrometer was run in Electron Ionization mode. The background mass spectra was subtracted from the spectra at the retention time of caprolactone (9.857 min). Presence of caprolactone was confirmed by comparison of the test reactions to an authentic standard obtained from Aldrich Chemical Company (St. Louis, Mo.).
Results of these assays are shown below in Table 7, in terms of the presence or absence of detectable caprolactone formation according to the activity of each expressed BV monooxygenase enzyme.

B1: ORF 19: Rhodococcus erythropolis AN12 ORF 19 chnB monooxygenase, protein SEQ ID NO:44, expressed in E. coli (protein)
chain: MTTQKALTTVDAIVIGAGFGGIYAVHKLANELGLTTVGFDKADGPGGTWYWNRYPGALSDTESHVYRFSFDRDLLQDGTWKHTYTTQPEILEYLEDVVSRFDLRRHFHFGTAVESAVYLEDEQLWEVTTDTGEIYRATYVVNAVGLLSAINRPDLPGLETFEGETIHTAAWPEGKDLTGRRVGVIGTGSTGQQVITALAPTVEHLTVFVRTPQYSVPVGKRAVTDEQIDAVKADYENIWTQVKRSSVAFGFEESTVPAMSVSAEERLRVYEEAWEQGGGFRFMFGTFGDIATDEEANETAASFIRSKITAMIEDPETARKLTPTGLFARRPLCDDGYFQVFNRPNVEAVAIKENPIREITAKGVVTEDGVLHKLDVLVLATGFDAVDGNYRRMTISGRGGLNINDHWDGQPTSYLGIATANFPNWFMVLGPNGPFTNLPPSIETQVEWISDTIGYVERTGVRAIEPTPEAESAWTATCTDIANMTVFTKVDSWIFGANVPGKKPSVLFYLGGLGNYRAVLADVTEGGYQGFALKTADTVDA
modifications: Rhodococcus erythropolis AN12
For B1, the “Formation of Caprolactone (ability to convert cyclohexanone to caprolactone)” value is reported as “Detected”.

B2: ORF 15: Rhodococcus erythropolis AN12 ORF 15 chnB monooxygenase, protein SEQ ID NO:36, expressed in E. coli (protein)
chain: MTIVTDLDRDHLRSAVLRGNVPTMLAVLLELTADERWVAPRYQPTRSRGMDDNSTGGLPEEVQSEIRSALIDAVERWWTLDEPSRRTLDSSEVERILNFTCSETVPPDFAPMMAEIVNGPQIKPATAKCDERLHAIVIGAGIAGMLASVELSRAGIPHVILEKNDDVGGSWWENRYPGAGVDTPSHLYSISSFPRNWSTHFGKRDEVQGYLEDFAEANDIRRNVRFRHEVTRAEFEESKQSWRVSVQRPGEASETLEAPILISAVGLLNRPKIPHLPGIETFRGRLFHSAEWPSELDDPESLRGKRVGIVGTGASAMQIGPAIADRVGSLTIFQRSPQWIAPNDDYFTTIDDGVHWLMDNIPGYREWYRARLSWIFNDKVYSSLQVDPDWPEPSASINATNHGHRKFYERYLRDQLGDRTDLIEASLPDYPPFGKRMLLDNGWFTMLRKPDVTLVPHGVDALTPSGLVDTNGVEHQLDVIVMATGFHSVRVLYPMDIVGRSGRSTGEIWGEHDARAYLGITVPDFPNFFVMTGPNTGLGHGGSFITILECQVRYIMDALKLMQSENLGAMECRAEVNDRYNEAVDRQHAQMVWTHPAMENWYRNPDGRVVSVLPWRINDYWAMTYRVDPSDFRTEPARSESVPTPTARG
modifications: Rhodococcus erythropolis AN12
For B2, the “Formation of Caprolactone (ability to convert cyclohexanone to caprolactone)” value is “Not Detected”.
